Experimental data: article PMC7954794, “Protein context shapes the specificity of SH3 domain-mediated interactions in vivo” (Nature Communications, 2021)

B1: YMR216C_2 (protein, UniProt Q03656 1-742, looked up)
Serine/threonine-protein …: MGSSINYPGFVTKSAHLADTSTDASISCEEATSSQEAKKNFFQRDYNMMKKAPAPTKSKLSLALQTSKSSSSANGTVQEDTSSKTEDFSTKSIKKKPDSGVESHVSIQSDSGPQSDSDLDSDSSISSCDERNEESLKDYRPGGYHPAFKGEPYKDARYILVRKLGWGHFSTVWLAKDMVNNTHVAMKIVRGDKVYTEAAEDEIKLLQRVNDADNTKEDSMGANHILKLLDHFNHKGPNGVHVVMVFEVLGENLLALIKKYEHRGIPLIYVKQISKQLLLGLDYMHRRCGIIHTDIKPENVLMEIGDVEGIVQMVEALDKQKREAKRLQRHVSRSSDITANDSSDEKWAECQTSMPCGSSSNSKSRSIEKDLSKRCFRRPRRHTIITGSQPLPSPISSSNFFEMRAHFCGSSHNSFSSVSGNRNIPSSINNNSINNGIGIKNSNNSFLNSVPHSVTRMFINEDSNDNNNNDNSKNKNNNNNNSNNNNNEDIMNTPLHEEQLADSLSTFDISNISQSSDTNGPYISNTMDSNSNVSTDINSPENLIQIKIADLGNACWYDEHYTNSIQTREYRSPEVLLGAPWGCGADIWSTACLIFELITGDFLFEPDEGHSYTKDDDHIAQIIELLGELPSYLLRNGKYTRTFFNSRGLLRNISKLKFWPLEDVLTEKYKFSKDEAKEISDFLSPMLQLDPRKRADAGGLVNHPWLKDTLGMEEIRVPDRELYGSGSDIPGWFEEVRDHKRH
B2: YLR196W_2 (protein, UniProt P21304 1-576, looked up)
Periodic tryptophan protein 1: MISATNWVPRGFSSEFPEKYVLDDEEVERINQLAQLNLDDAKATLEEAEGESGVEDDAATGSSNKLKDQLDIDDDLKEYNLEEYDDEEIADNEGGKDVSMFPGLSNDSDVKFHEGEKGEDPYISLPNQEDSQEEKQELQVYPSDNLVLAARTEDDVSYLDIYVYDDGAGFHSSDIPVEEGDEADPDVARGLVRDPALYVHHDLMLPAFPLCVEWLDYKVGSNSEEAANYAAIGTFDPQIEIWNLDCVDKAFPDMILGEPLDNSMVSLKSKKKKKKSKTGHITTHHTDAVLSMAHNKYFRSVLASTSADHTVKLWDLNSGNAARSLASIHSNKNVSSSEWHMLNGSILLTGGYDSRVALTDVRISDESQMSKYWSAMAGEEIETVTFASENIILCGTDSGNVYSFDIRNNENRKPVWTLKAHDAGISTLCSNKFIPGMMSTGAMGEKTVKLWKFPLDDATNTKGPSMVLSRDFDVGNVLTSSFAPDIEVAGTMVIGGVNKVLKLWDVFTNRSVRKSFKSELENVQARAKEEAQKIGKSSRIARKYTSNDNPDTVITIDDQGEDEEEREGGDEHDDMA
B3: YLR330W_2 (protein, UniProt Q12114 1-671, looked up)
Chitin biosynthesis protein …: MSSVDVLLTVGKLDASLALLTTQDHHVIEFPTVLLPENVKAGSIIKMQVSQNLEEEKKQRNHFKSIQAKILEKYGTHKPESPVLKIVNVTQTSCVLAWDPLKLGSAKLKSLILYRKGIRSMVIPNPFKVTTTKISGLSVDTPYEFQLKLITTSGTLWSEKVILRTHKMTDMSGITVCLGPLDPLKEISDLQISQCLSHIGARPLQRHVAIDTTHFVCNDLDNEESNEELIRAKHNNIPIVRPEWVRACEVEKRIVGVRGFYLDADQSILKNYTFPPVNEEELSYSKENEPVAEVADENKMPEDTTDVEQVASPNDNESNPSEAKEQGEKSGHETAPVSPVEDPLHASTALENETTIETVNPSVRSLKSEPVGTPNIEENKADSSAEAVVEEPNEAVAESSPNEEATGQKSEDTDTHSNEQADNGFVQTEEVAENNITTESAGENNEPADDAAMEFGRPEAEIETPEVNESIEDANEPAEDSNEPVEDSNKPVKDSNKPVEDSNKPVEDSNKPVEDSNKPVEDANEPVEDTSEPVEDAGEPVQETNEFTTDIASPRHQEEDIELEAEPKDATESVAVEPSNEDVKPEEKGSEAEDDINNVSKEAASGESTTHQKTEASASLESSAVTEEQETTEAEVNTDDVLSTKEAKKNTGNSNSNKKKNKKNKKKGKKK

Each molecule was assayed on PPIs identified as affected by the SH3 domain deletions (assay: Liquid DHFR-PCA low-throughput validation of PPIs affected by SH3 deletion (Fig. S1D-E)). Settings: bait LSB3; label = prey; liquid DHFR-PCA; prey _1 = lost, _2 = gained in screen.
Type: cell-based, Saccharomyces cerevisiae
Outline: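 Growth at 30 °C was tracked by OD each 15 min over 72 h in agar-free PCA selection medium, starting at 0.1 OD. Cells were diploids selected after mating, first cultured 48 h with NAT and HPH in synthetic complete MSG medium, pH 6.0.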
For B1, the “Ratio (Deletedscore / WTscore)” value was 1.244.
For B2, the “Ratio (Deletedscore / WTscore)” value was 1.184.
In the case of B3, the “Ratio (Deletedscore / WTscore)” value is reported as 1.34.
